Measured values reported in the Human Domainome abundance scans (Beltran et al. 2025).
± gives the uncertainty stated by the source.

B1: POU domain, class 3, transcription factor 3, residues 320 to 388; numbered along this chain, P20264 (parent)
chain: DDLEQFAKQFKQRRIKLGFTQADVGLALGTLYGNVFSQTTICRFEALQLSFKNMCKLKPLLNKWLEEAD
B2: Metastasis-associated protein MTA3, residues 265 to 317; numbered along this chain, Q9BTC8 (parent)
chain: RDEMEEWSASEASLFEEALEKYGKDFNDIRQDFLPWKSLTSIIEYYYMWKTTD

Variants of: B1
Assay: abundance fitness (aPCA) (normalised: wild type 0, dead -1); higher = more abundant; growth selection in yeast, the domain comes from the species named
Conditions: Homo sapiens

Q: With DALEQFAKQFKQRRIKLGFTQADVGLALGTLYGNVFSQTTICRFEALQLSFKNMCKLKPLLNKWLEEAD [D2A] as the variant, how does the abundance fitness read?
A: 0.107 ± 0.16

Q: With DILEQFAKQFKQRRIKLGFTQADVGLALGTLYGNVFSQTTICRFEALQLSFKNMCKLKPLLNKWLEEAD [D2I] as the variant, how does the abundance fitness read?
A: -0.238 ± 0.15

Q: Which abundance fitness does the source give for DELEQFAKQFKQRRIKLGFTQADVGLALGTLYGNVFSQTTICRFEALQLSFKNMCKLKPLLNKWLEEAD [D2E] here?
A: -0.031 ± 0.049

Q: With DGLEQFAKQFKQRRIKLGFTQADVGLALGTLYGNVFSQTTICRFEALQLSFKNMCKLKPLLNKWLEEAD [D2G] as the variant, how does the abundance fitness read?
A: -0.224 ± 0.081

Q: For NDLEQFAKQFKQRRIKLGFTQADVGLALGTLYGNVFSQTTICRFEALQLSFKNMCKLKPLLNKWLEEAD [D1N], which abundance fitness is on record?
A: 0.529 ± 0.33

Variants of: B2
Assay: as above
Conditions: Homo sapiens

Q: For RDEMEEWSASEASLFEEALEKYGKDFNDIRQDFLPWKSLTSIIEYYYMWKTTR [D53R], which abundance fitness is on record?
A: -0.164 ± 0.39

Q: Which abundance fitness does the source give for RDEMEEWSASEASLFEEALEKYGKDFNDIRQDFLPWKSLTSIIEYYYMWKTTV [D53V] here?
A: -0.336 ± 0.092

Q: For RDEMEEWSASEASLFEEALEKYGKDFNDIRQDFLPWKSLTSIIEYYYMWKTTA [D53A], which abundance fitness is on record?
A: -0.135 ± 0.095

Q: Which abundance fitness does the source give for RDEMEEWSASEASLFEEALEKYGKDFNDIRQDFLPWKSLTSIIEYYYMWKTTC [D53C] here?
A: 0.179 ± 0.29

Q: Which abundance fitness does the source give for RDEMEEWSASEASLFEEALEKYGKDFNDIRQDFLPWKSLTSIIEYYYMWKTTG [D53G] here?
A: 0.066 ± 0.16

Q: With RDEMEEWSASEASLFEEALEKYGKDFNDIRQDFLPWKSLTSIIEYYYMWKTTY [D53Y] as the variant, how does the abundance fitness read?
A: -0.543 ± 0.36

Q: For RDEMEEWSASEASLFEEALEKYGKDFNDIRQDFLPWKSLTSIIEYYYMWKTTP [D53P], which abundance fitness is on record?
A: -0.044 ± 0.097

Q: For RDEMEEWSASEASLFEEALEKYGKDFNDIRQDFLPWKSLTSIIEYYYMWKTTN [D53N], which abundance fitness is on record?
A: 0.211 ± 0.3

Q: Which abundance fitness does the source give for RDEMEEWSASEASLFEEALEKYGKDFNDIRQDFLPWKSLTSIIEYYYMWKTTI [D53I] here?
A: -0.566 ± 0.48

Q: For RDEMEEWSASEASLFEEALEKYGKDFNDIRQDFLPWKSLTSIIEYYYMWKTTT [D53T], which abundance fitness is on record?
A: -0.41 ± 0.22

Q: Which abundance fitness does the source give for RDEMEEWSASEASLFEEALEKYGKDFNDIRQDFLPWKSLTSIIEYYYMWKTKD [T52K] here?
A: 0.344 ± 0.1

Q: Which abundance fitness does the source give for RDEMEEWSASEASLFEEALEKYGKDFNDIRQDFLPWKSLTSIIEYYYMWKTDD [T52D] here?
A: -0.251 ± 0.21

Q: With RDEMEEWSASEASLFEEALEKYGKDFNDIRQDFLPWKSLTSIIEYYYMWKTCD [T52C] as the variant, how does the abundance fitness read?
A: 0.191 ± 0.14

Q: Which abundance fitness does the source give for RDEMEEWSASEASLFEEALEKYGKDFNDIRQDFLPWKSLTSIIEYYYMWKTPD [T52P] here?
A: -0.055 ± 0.078

Q: For RDEMEEWSASEASLFEEALEKYGKDFNDIRQDFLPWKSLTSIIEYYYMWKTLD [T52L], which abundance fitness is on record?
A: -0.298 ± 0.094

Q: With RDEMEEWSASEASLFEEALEKYGKDFNDIRQDFLPWKSLTSIIEYYYMWKTRD [T52R] as the variant, how does the abundance fitness read?
A: 0.08 ± 0.069

Q: Which abundance fitness does the source give for RDEMEEWSASEASLFEEALEKYGKDFNDIRQDFLPWKSLTSIIEYYYMWKTVD [T52V] here?
A: -0.097 ± 0.12

Q: Which abundance fitness does the source give for RDEMEEWSASEASLFEEALEKYGKDFNDIRQDFLPWKSLTSIIEYYYMWKTID [T52I] here?
A: -0.292 ± 0.22

Q: With RDEMEEWSASEASLFEEALEKYGKDFNDIRQDFLPWKSLTSIIEYYYMWKTFD [T52F] as the variant, how does the abundance fitness read?
A: -0.51 ± 0.37

Q: For RDEMEEWSASEASLFEEALEKYGKDFNDIRQDFLPWKSLTSIIEYYYMWKTYD [T52Y], which abundance fitness is on record?
A: -0.428 ± 0.12

Q: For RDEMEEWSASEASLFEEALEKYGKDFNDIRQDFLPWKSLTSIIEYYYMWKTWD [T52W], which abundance fitness is on record?
A: -0.521 ± 0.23

Q: For RDEMEEWSASEASLFEEALEKYGKDFNDIRQDFLPWKSLTSIIEYYYMWKTMD [T52M], which abundance fitness is on record?
A: -0.402 ± 0.13

Q: For RDEMEEWSASEASLFEEALEKYGKDFNDIRQDFLPWKSLTSIIEYYYMWKTAD [T52A], which abundance fitness is on record?
A: -0.097 ± 0.065

Q: With RDEMEEWSASEASLFEEALEKYGKDFNDIRQDFLPWKSLTSIIEYYYMWKTGD [T52G] as the variant, how does the abundance fitness read?
A: 0.001 ± 0.097

Q: Which abundance fitness does the source give for RDEMEEWSASEASLFEEALEKYGKDFNDIRQDFLPWKSLTSIIEYYYMWKTHD [T52H] here?
A: -0.405 ± 0.2

Q: For RDEMEEWSASEASLFEEALEKYGKDFNDIRQDFLPWKSLTSIIEYYYMWKTND [T52N], which abundance fitness is on record?
A: 0.2 ± 0.095

Q: With RDEMEEWSASEASLFEEALEKYGKDFNDIRQDFLPWKSLTSIIEYYYMWKTSD [T52S] as the variant, how does the abundance fitness read?
A: -0.032 ± 0.071

Q: Which abundance fitness does the source give for RDEMEEWSASEASLFEEALEKYGKDFNDIRQDFLPWKSLTSIIEYYYMWWTTD [K50W] here?
A: -0.882 ± 0.26

Q: For RDEMEEWSASEASLFEEALEKYGKDFNDIRQDFLPWKSLTSIIEYYYMWKSTD [T51S], which abundance fitness is on record?
A: -0.068 ± 0.1

Q: For RDEMEEWSASEASLFEEALEKYGKDFNDIRQDFLPWKSLTSIIEYYYMWKDTD [T51D], which abundance fitness is on record?
A: 0.134 ± 0.18

Q: For RDEMEEWSASEASLFEEALEKYGKDFNDIRQDFLPWKSLTSIIEYYYMWKMTD [T51M], which abundance fitness is on record?
A: -0.542 ± 0.16

Q: For RDEMEEWSASEASLFEEALEKYGKDFNDIRQDFLPWKSLTSIIEYYYMWKPTD [T51P], which abundance fitness is on record?
A: -0.1 ± 0.1

Q: With RDEMEEWSASEASLFEEALEKYGKDFNDIRQDFLPWKSLTSIIEYYYMWKRTD [T51R] as the variant, how does the abundance fitness read?
A: -0.097 ± 0.075

Q: For RDEMEEWSASEASLFEEALEKYGKDFNDIRQDFLPWKSLTSIIEYYYMWKGTD [T51G], which abundance fitness is on record?
A: 0.076 ± 0.075

Q: With RDEMEEWSASEASLFEEALEKYGKDFNDIRQDFLPWKSLTSIIEYYYMWKWTD [T51W] as the variant, how does the abundance fitness read?
A: -0.853 ± 0.17

Q: With RDEMEEWSASEASLFEEALEKYGKDFNDIRQDFLPWKSLTSIIEYYYMWKLTD [T51L] as the variant, how does the abundance fitness read?
A: -0.147 ± 0.084

Q: Which abundance fitness does the source give for RDEMEEWSASEASLFEEALEKYGKDFNDIRQDFLPWKSLTSIIEYYYMWKNTD [T51N] here?
A: -0.027 ± 0.083

Q: With RDEMEEWSASEASLFEEALEKYGKDFNDIRQDFLPWKSLTSIIEYYYMWKATD [T51A] as the variant, how does the abundance fitness read?
A: 0.185 ± 0.11

Q: With RDEMEEWSASEASLFEEALEKYGKDFNDIRQDFLPWKSLTSIIEYYYMWKYTD [T51Y] as the variant, how does the abundance fitness read?
A: 0.304 ± 0.12

Q: Which abundance fitness does the source give for RDEMEEWSASEASLFEEALEKYGKDFNDIRQDFLPWKSLTSIIEYYYMWKCTD [T51C] here?
A: -0.244 ± 0.12

Q: Which abundance fitness does the source give for RDEMEEWSASEASLFEEALEKYGKDFNDIRQDFLPWKSLTSIIEYYYMWKQTD [T51Q] here?
A: 0.433 ± 0.14

Q: Which abundance fitness does the source give for RDEMEEWSASEASLFEEALEKYGKDFNDIRQDFLPWKSLTSIIEYYYMWKFTD [T51F] here?
A: -0.732 ± 0.35

Q: For RDEMEEWSASEASLFEEALEKYGKDFNDIRQDFLPWKSLTSIIEYYYMWKVTD [T51V], which abundance fitness is on record?
A: -0.624 ± 0.14

Q: With RDEMEEWSASEASLFEEALEKYGKDFNDIRQDFLPWKSLTSIIEYYYMWKHTD [T51H] as the variant, how does the abundance fitness read?
A: -0.235 ± 0.1
